Results on 2 substances are retold here after patent publication EP2265632B1, “CD4-RELATED POLYPEPTIDES AND METHODS OF USE” (priority 2008, dated 2009).

Assay [1] concerns the target recombinant HIV-1BaL gp120 (HIV-1 BaL). Kind of assay: ELISA on immobilized gp120BaL in 25 mM DTT.
The target is the same in assay [2]. The experiment in a line: ELISA on immobilized gp120BaL in 100 mM β-mercaptoethanol. A general note: In an ELISA, binding on a coated surface is turned into a signal by an enzyme label.

Consider MAb 2G12 (antibody), for which the percent of the binding seen under native conditions in assay [1] and in assay [2] was 50% throughout.
With MAb IgG1 b12 (antibody), the percent of the binding seen under native conditions in assay [1] and in assay [2] was 50% each time.
